What was measured:
[1] = biological target: T1, MfANGPTL3(17-170)-mmH (Macaca fascicularis); experiment: SPR Biacore, antigen captured, 37C, pH 7.2, PBSP
T1 construct: also called N-terminal coiled-coil domain of ANGPTL3 from Macaca fascicularis with myc-myc-hexahistidine tag; Monkey ANGPTL3 (17-170)-mmH
T1 chain: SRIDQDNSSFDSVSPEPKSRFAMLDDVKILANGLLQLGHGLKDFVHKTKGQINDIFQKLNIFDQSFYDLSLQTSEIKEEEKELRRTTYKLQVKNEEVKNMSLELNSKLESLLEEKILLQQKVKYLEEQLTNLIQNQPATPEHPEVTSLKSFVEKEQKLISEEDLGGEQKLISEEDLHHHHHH
Experimental: (§1) All kinetic binding experiments were performed at 25° C. or 37° C. on a BIACORE™ T200 label-free molecular interaction instrument (GE Healthcare) using a CM5 sensor chip. Briefly, an antigen capture surface was generated by covalently coupling either an anti-mouse IgG-specific antibody (anti-mFc; GE Healthcare; catalog #BR-1008-38) or an anti-pentahistidine-specific antibody (Qiagen; catalog #34660) to the surface of a CM5 sensor chip using a standard amine coupling method.

[2] = biological target: T2, hANGPTL3(17-170)-His (human, UniProt Q9Y5C1 17-170); experiment: SPR Biacore, antigen captured, 37C, pH 7.2, PBSP
T2 construct: also called N-terminal coiled-coil domain of hANGPTL3 with a C-terminal hexahistidine tag; Human ANGPTL3 (17-170)-His
T2 sequence: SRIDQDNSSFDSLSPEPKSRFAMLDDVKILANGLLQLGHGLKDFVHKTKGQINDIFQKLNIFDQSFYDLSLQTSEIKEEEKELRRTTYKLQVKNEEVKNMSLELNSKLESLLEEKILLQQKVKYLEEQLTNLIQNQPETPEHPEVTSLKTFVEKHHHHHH
Experimental: as §1

[3] = biological target: T3, hANGPTL3(17-460)-His (human, UniProt Q9Y5C1 17-460); experiment: SPR Biacore, antigen captured, 37C, pH 7.2, PBSP
T3 construct: Bought protein (R&D Systems); also called full-length mature human ANGPTL3 with a C-terminal decahistidine tag; Human ANGPTL3 (17-460)-His
T3 sequence: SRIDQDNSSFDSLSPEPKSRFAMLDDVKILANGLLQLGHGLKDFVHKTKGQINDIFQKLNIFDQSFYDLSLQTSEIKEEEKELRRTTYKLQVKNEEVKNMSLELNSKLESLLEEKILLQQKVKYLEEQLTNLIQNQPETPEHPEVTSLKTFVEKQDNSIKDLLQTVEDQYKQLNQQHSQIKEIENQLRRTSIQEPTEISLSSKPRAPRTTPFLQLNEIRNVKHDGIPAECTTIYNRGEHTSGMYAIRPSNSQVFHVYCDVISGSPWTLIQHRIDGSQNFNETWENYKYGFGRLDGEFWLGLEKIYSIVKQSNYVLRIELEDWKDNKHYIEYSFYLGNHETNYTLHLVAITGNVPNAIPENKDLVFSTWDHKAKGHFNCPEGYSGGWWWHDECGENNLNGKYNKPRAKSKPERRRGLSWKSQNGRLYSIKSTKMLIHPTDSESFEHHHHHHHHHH
Experimental: as §1

[4] = biological target: T1, MfANGPTL3(17-170)-mmH; experiment: SPR Biacore, antigen captured, 25C, pH 5.75, PBSP
Experimental: as §1

[5] = biological target: T2, hANGPTL3(17-170)-His; experiment: SPR Biacore, antigen captured, 25C, pH 5.75, PBSP
Experimental: as §1

[6] = biological target: T3, hANGPTL3(17-460)-His; experiment: SPR Biacore, antigen captured, 25C, pH 5.75, PBSP
Experimental: as §1

Kd [1]: 0.0007 µM
koff [1]: 0.00136 s⁻¹
kon [1]: 1.94e+06 M⁻¹ s⁻¹
t1/2 [1]: 8.5 min
Kd [2]: 0.00174 µM
koff [2]: 0.00273 s⁻¹
kon [2]: 1.57e+06 M⁻¹ s⁻¹
t1/2 [2]: 4.2 min
Kd [3]: 0.00176 µM
koff [3]: 0.00118 s⁻¹
kon [3]: 667000 M⁻¹ s⁻¹
t1/2 [3]: 9.8 min
Kd [4]: 0.021 µM
koff [4]: 0.00432 s⁻¹
kon [4]: 206000 M⁻¹ s⁻¹
t1/2 [4]: 2.7 min
Kd [5]: 0.024 µM
koff [5]: 0.00672 s⁻¹
kon [5]: 280000 M⁻¹ s⁻¹
t1/2 [5]: 1.7 min
Kd [6]: 0.0675 µM
koff [6]: 0.00494 s⁻¹
kon [6]: 73200 M⁻¹ s⁻¹
t1/2 [6]: 2.3 min
B1: H4H1276S (antibody, IgG4, V domains shown)
VH: EVQLVESGGGVIQPGGSLRLSCAASGFTFDDYAMNWVRQGPGKGLEWVSAISGDGGSTYYADSVKGRFTISRDNSKNSLYLQMNSLRAEDTAFFYCAKDLRNTIFGVVIPDAFDIWGQGTMVTVSS
VL: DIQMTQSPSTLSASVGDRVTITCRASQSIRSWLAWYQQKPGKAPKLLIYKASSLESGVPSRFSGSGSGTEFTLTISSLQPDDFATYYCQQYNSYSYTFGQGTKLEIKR

From patent US20150197564A1 (Regeneron, published 2015)
